Test results as given in patent publication US20220186225, “COMPOUNDS FOR DETECTING AND TREATING MYCOPLASMA HYOPNEUMONIAE” (AEROVIRUS TECHNOLOGIES INC., published 2022).

T1: P97 cilium adhesin peptidic complex (F2P97 / R1-containing section, SELEX target) (Mycoplasma hyopneumoniae)
T1 chain: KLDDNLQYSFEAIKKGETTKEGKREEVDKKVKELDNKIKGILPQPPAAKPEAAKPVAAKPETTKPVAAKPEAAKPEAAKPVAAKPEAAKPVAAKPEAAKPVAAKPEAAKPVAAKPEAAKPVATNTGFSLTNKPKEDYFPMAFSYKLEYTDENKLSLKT

B1: APT3Histo1 (ssDNA)
DNA: GCCTGTTGTGAGCCTCCTAACCGCACGTGGGTATTCTAAGTGCGGTAGCTCAATGGTGAGCGATGAGCATCATGCTTATTCTTGTCTCCC
B2: APT3Cooc3 (ssDNA)
DNA: GCCTGTTGTGAGCCTCCTAACTAGCTCGTAGAAAAAAAATATAGCGTGTGCTGGGACTGCTCGGGATTGCGGACACATGCTTATTCTTGTCTCCC

Target: T1, P97 cilium adhesin peptidic complex …
Assay: ELISA; reverse screening on streptavidin plate, 37 C
Conditions: tags: His tag (Ni-NTA captured); label: biotin in reverse screening
Procedure: Reverse Screening of Aptamer—Selected ssDNA molecules from each individual clone were biotinylated using the B-T3 which is same sequence with 5′ primer (T3 primer), and Klenow fragment (2 unit/ml). To prepare single stranded biotin conjugated APT3Cooc10 aptamer for the reverse screening. T3 Primer was Biotin labelled. A 96-well flat bottom ELISA plate was prepared by coating each well with 100 μl of streptavidin (100 μg/ml) diluted in 0.1 M NaHCO₃ following by a 37° C. overnight incubation. Following several washings with PBS, wells were blocked with 200 μl of PBS containing 1% BSA for 2 hours at room temperature and subsequent washing three times with PBS-T (10 mM PBS containing 0.05% (v/v) Tween-20). Thereafter, 100 μl of 2.5 pmole/100 μl biotinylated-ssDNA were added to the wells and incubated at 37° C. for 2 hours followed by washing four times with PBS-T. T3 primer was used as negative control. Following washing, 100 μl of fluid containing 2 μg histidine labelled P97 peptidic complex were added to the indicated wells and incubated at 37° C. for 2 hours. […]
Enzyme-Linked Immunosorbent Assay (ELISA)—The ELISA tests were carried-out following all the guidelines provided with the DAKO kit. Reaction was terminated with 100 μl of 0.5M H₂SO₄, and the plates were read with a multichannel spectrophotometer at 450 nm.

| Binder | binding result |
| --- | --- |
| B1 | binds |
| B2 | binds |
